Measurements from paper PMC11558545, “Mechanistic Insights into the Function of 14-3-3 Proteins as Negative Regulators of Brassinosteroid Signaling in Arabidopsis” (Plant and Cell Physiology, 2024).

B1: BIN2^7-380: BIN2 (residues 7–380) expressed either in Escherichia coli or in insect cells (protein)
chain: MPAAVVDGHDQVTGHIISTTIGGKNGEPKQTISYMAERVVGTGSFGIVFQAKCLETGETVAIKKVLQDRRYKNRELQLMRVMDHPNVVCLKHCFFSTTSKDELFLNLVMEYVPESLYRVLKHYSSANQRMPLVYVKLYMYQIFRGLAYIHNVAGVCHRDLKPQNLLVDPLTHQVKICDFGSAKQLVKGEANISYICSRFYRAPELIFGATEYTTSIDIWSAGCVLAELLLGQPLFPGENAVDQLVEIIKVLGTPTREEIRCMNPHYTDFRFPQIKAHPWHKIFHKRMPPEAIDFASRLLQYSPSLRCTALEACAHPFFDELREPNARLPNGRPFPPLFNFKQEVAGSSPELVNKLIPDHIKRQLGLSFLNQSGT
modifications: left off: thioredoxin A, N-terminal, cleaved | 8xHis, N-terminal, cleaved | StrepII, N-terminal, cleaved
notes: BIN2 (residues 7–380) expressed either in Escherichia coli or in insect cells
B2: BAK1^250-615: BAK1/SERK3 cytoplasmic domain (residues 250–615) after incubation with BRI1^814−1196 (protein)
chain: RRKKPQDHFFDVPAEEDPEVHLGQLKRFSLRELQVASDNFSNKNILGRGGFGKVYKGRLADGTLVAVKRLKEERTQGGELQFQTEVEMISMAVHRNLLRLRGFCMTPTERLLVYPYMANGSVASCLRERPESQPPLDWPKRQRIALGSARGLAYLHDHCDPKIIHRDVKAANILLDEEFEAVVGDFGLAKLMDYKDTHVTTAVRGTIGHIAPEYLSTGKSSEKTDVFGYGVMLLELITGQRAFDLARLANDDDVMLLDWVKGLLKEKKLEALVDVDLQGNYKDEEVEQLIQVALLCTQSSPMERPKMSEVVRMLEGDGLAERWEEWQKEEMFRQDFNYPTHHPAVSGWIIGDSTSQIENEYPSGPR
modifications: auto- and transphosphorylated by incubation with BRI1^814−1196; sites not given
B3: BRI1^814-1196: isolated BRI1 cytoplasmic domain (residues 814–1196) after incubation with the BAK1 cytoplasmic domain (protein)
chain: GREMRKRRRKKEAELEMYAEGHGNSGDRTANNTNWKLTGVKEALSINLAAFEKPLRKLTFADLLQATNGFHNDSLIGSGGFGDVYKAILKDGSAVAIKKLIHVSGQGDREFMAEMETIGKIKHRNLVPLLGYCKVGDERLLVYEFMKYGSLEDVLHDPKKAGVKLNWSTRRKIAIGSARGLAFLHHNCSPHIIHRDMKSSNVLLDENLEARVSDFGMARLMSAMDTHLSVSTLAGTPGYVPPEYYQSFRCSTKGDVYSYGVVLLELLTGKRPTDSPDFGDNNLVGWVKQHAKLRISDVFDPELMKEDPALEIELLQHLKVAVACLDDRAWRRPTMVQVMAMFKEIQAGSGIDSQSTIRSIEDGGFSTIEMVDMSIKEVPEGKL
modifications: auto- and transphosphorylated by incubation with BAK1^250−615; sites not given
notes: isolated BRI1 cytoplasmic domain (residues 814–1196) after incubation with the BAK1 cytoplasmic domain
B4: BSK1^55-512: BSK1 (residues 55–512) after incubation with BRI1^814−1196 (protein)
chain: IPSFSEFSFADLKAATNNFSSDNIVSESGEKAPNLVYKGRLQNRRWIAVKKFTKMAWPEPKQFAEEAWGVGKLRHNRLANLIGYCCDGDERLLVAEFMPNDTLAKHLFHWENQTIEWAMRLRVGYYIAEALDYCSTEGRPLYHDLNAYRVLFDEDGDPRLSCFGLMKNSRDGKSYSTNLAYTPPEYLRNGRVTPESVTYSFGTVLLDLLSGKHIPPSHALDMIRGKNIILLMDSHLEGKFSTEEATVVVELASQCLQYEPRERPNTKDLVATLAPLQTKSDVPSYVMLGIKKQEEAPSTPQRPLSPLGEACSRMDLTAIHQILVMTHYRDDEGTNELSFQEWTQQMKDMLDARKRGDQSFREKDFKTAIDCYSQFIDVGTMVSPTVFGRRSLCYLLCDQPDAALRDAMQAQCVYPDWPTAFYMQSVALAKLNMNTDAADMLNEAAQLEEKRQRGGRGS
modifications: phosphorylated by incubation with BRI1^814−1196 (mainly Ser230); left off: 8xHis, N-terminal, cleaved | tandem StrepII, N-terminal, cleaved

Target: T1, Arabidopsis 14-3-3 isoform kappa (14-3-3κ) (Arabidopsis thaliana, UniProt P48348)
T1 construct: Full-length At14-3-3-κ^1−248 (Uniprot-ID P48348, http://uniprot.org); thioredoxin A (trxA) fusion (N, cleaved yes); 8xHis (N, cleaved yes); StrepII (N, cleaved yes); made in house; host or cells: E. coli BL21 (DE3) RIL
T1 sequence (P48348 whole entry, the tested form may be a part, canonical isoform): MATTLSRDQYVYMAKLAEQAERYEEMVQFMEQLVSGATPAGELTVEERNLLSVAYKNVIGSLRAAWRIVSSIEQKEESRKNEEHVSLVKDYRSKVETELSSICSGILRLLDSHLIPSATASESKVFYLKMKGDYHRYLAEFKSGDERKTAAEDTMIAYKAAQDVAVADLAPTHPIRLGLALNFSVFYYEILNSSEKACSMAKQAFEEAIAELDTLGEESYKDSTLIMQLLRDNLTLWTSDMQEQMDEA
Assay: biochemical
Type: binding
Details: ITC; proteins auto-/transphosphorylated or expressed in E. coli or insect cells as described
Excerpt: Full-length At14-3-3-κ^1−248 (Uniprot-ID P48348, http://uniprot.org), At14-3-3-λ^1−248 (P48349), At14-3-3-ω^1−259 (Q01525) or C-terminal truncated At14-3-3-κ^1−240, At14-3-3-λ^1−240 or At14-3-3-ω^1−237 isoforms and BIN2^7−380 from Arabidopsis were cloned from synthetic genes codon-optimized for expression in E. coli (Geneart, Thermofisher, Tauberbischofsheim, Germany) into vector pMH-HStrxT providing an N-terminal thioredoxin A (trxA) fusion protein containing 8xHis and StrepII affinity tags, and a tobacco etch virus protease (TEV) recognition site. Protein expression in E. coli BL21 (DE3) RIL grown to OD600nm= 0.6 was induced with 0.2 mM ispropyl β-D-galactoside in terrific broth at 16°C for 16 h. Cells were collected by centrifugation at 4500 × g for 30 min, washed in PBS buffer, centrifuged again at 4500 × g for 15 min and snap-frozen in liquid N2. For protein purification cells were resuspended in buffer A (20 mM Tris–HCl pH 8.0, 500 mM NaCl), and lysed by sonication (Branson DS450). The lysate was cleared by centrifugation at 7000 × g for 60 min and filtrated using a 0.45 µm molecular weight cutoff filter (Pall Corporation, Port Washington, NY, USA). The supernatant was loaded onto a Ni^2+ affinity column (HisTrap HP 5 mL, Cytiva Life Sciences, Freiburg im Breisgau, Germany), washed with buffer A and eluted in buffer A supplemented with 250 mM imidazole pH 8.0. The elution fractions containing the trxA-14-3-3 or trxA-BIN2 fusion proteins were loaded onto a 5 mL Strep-Tactin Superflow High Capacity column (IBA Lifesciences, Goettingen, Germany), washed with buffer A and eluted in buffer A supplemented with 2.5 mM desthiobiotin. […] Dimeric (14-3-3s) or monomeric (BIN2) peak fractions were concentrated to 10–40 mg/ml and used directly for biochemistry and crystallization experiments. Point mutations were introduced by site-directed mutagenesis and variants At14-3-3 λ^N233A and 14-3-3 λ^R136L/Y137F were purified using the same protocol as described for the wild type.
The BRI1^814−1196 and BAK1^250−615/SERK3 cytoplasmic domains were purified as previously described ([Bojar et al. 2014]). BSK1 (residues 55–512), BSU1 (residues 1–793) and BIN2 (residues 7–380) were cloned into a modified pACEBac1 plasmid ([Bieniossek et al. 2012]) providing TEV-cleavable N-terminal 8xHis and tandem StrepII affinity tags, and expressed in baculovirus-infected Trichoplusia ni Tnao cells ([Hashimoto et al. 2010]). Cells grown to a density of 1.5 × 10^6 cells ml^−1 were infected with 10 ml of virus subjected to two rounds of viral amplification per 250 ml of cells and incubated for 48 h at 28°C. […]

**Q.** Which “binding to 14-3-3κ, in words” value does the source give for B1 here?
**A.** Its value is “No specific binding was detected”.

**Q.** With B2 as the molecule, how does the “binding to 14-3-3κ, in words” value read?
**A.** The value was “No specific binding was detected”.

**Q.** With B3 as the molecule, how does the “binding to 14-3-3κ, in words” value read?
**A.** Its value is “No specific binding was detected”.

**Q.** B4 was tested. Which “binding to 14-3-3κ, in words” value did it give?
**A.** Its value is “No specific binding was detected”.
